One assay addresses T1, O7.
T1 chain: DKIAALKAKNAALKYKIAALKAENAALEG
Nature of the assay: two-hybrid library CCNG1.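 Further: natural log of median RNA to DNA barcode read ratio; higher means stronger binding.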

In the next assay the target is T2, O9.
T2 chain: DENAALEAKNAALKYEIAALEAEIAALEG
Nature of the assay: two-hybrid library CCNG1.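 Further: natural log of median RNA to DNA barcode read ratio; higher means stronger binding.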

The target of a further assay is T3, O8.
T3 chain: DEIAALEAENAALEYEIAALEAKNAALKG
Nature of the assay: two-hybrid library CCNG1.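 Further: natural log of median RNA to DNA barcode read ratio; higher means stronger binding.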

The target of the next assay is T4, O6.
T4 chain: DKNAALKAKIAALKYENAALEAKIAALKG
The assay can be described thus: two-hybrid library CCNG1.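 Further: natural log of median RNA to DNA barcode read ratio; higher means stronger binding.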

Another assay addresses T5, O5.
T5 chain: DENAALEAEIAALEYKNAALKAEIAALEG
Nature of the assay: two-hybrid library CCNG1.

The target of a further assay is T6, 4H348-bN.
T6 chain: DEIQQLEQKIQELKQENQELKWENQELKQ
The assay can be described thus: two-hybrid library CCNG1.

The target of the next assay is T7, 4H492-bN.
T7 chain: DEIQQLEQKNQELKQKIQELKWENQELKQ
The assay can be described thus: two-hybrid library CCNG1.

The target in the next assay is T8, 4H3277-bN.
T8 chain: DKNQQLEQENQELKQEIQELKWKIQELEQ
Nature of the assay: two-hybrid library CCNG1.

The target in a further assay is T9, 4H3057-bN.
T9 chain: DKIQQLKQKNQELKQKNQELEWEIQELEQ
The assay can be described thus: two-hybrid library CCNG1.

In the next assay the target is T10, 4H2915-bN.
T10 chain: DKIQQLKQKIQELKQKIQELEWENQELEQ
Nature of the assay: two-hybrid library CCNG1.

The next assay has as its target T11, 4H40-bN.
T11 chain: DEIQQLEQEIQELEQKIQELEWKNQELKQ
The assay can be described thus: two-hybrid library CCNG1.

The next assay addresses T12, 4H741-bN.
T12 chain: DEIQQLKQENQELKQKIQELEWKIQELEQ
The assay can be described thus: two-hybrid library CCNG1.

The target in the next assay is T13, 4H319-bN.
T13 chain: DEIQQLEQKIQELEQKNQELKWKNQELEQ
Nature of the assay: two-hybrid library CCNG1.

The next assay has as its target T14, 4H477-bN.
T14 chain: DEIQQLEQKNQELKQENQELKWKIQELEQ
The assay can be described thus: two-hybrid library CCNG1.

For a further assay, the target named is T15, APC7099-AA.
T15 chain: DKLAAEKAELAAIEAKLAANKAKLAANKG
The assay can be described thus: two-hybrid library CCmax. Particulars: mean of both orientations.

The target in the next assay is T16, APC6108-AA.
T16 chain: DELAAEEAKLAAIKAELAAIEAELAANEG
Nature of the assay: two-hybrid library CCmax. Particulars: mean of both orientations.

A further assay concerns the target T17, APC4264-AA.
T17 chain: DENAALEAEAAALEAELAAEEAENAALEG
The assay can be described thus: two-hybrid library CCmax. The settings on record: mean of both orientations.

The target of another assay is T18, APC9096-AA.
T18 chain: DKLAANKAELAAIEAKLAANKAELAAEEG
Nature of the assay: two-hybrid library CCmax. Particulars: mean of both orientations.

In the next assay the target is T19, APC8191-AA.
T19 chain: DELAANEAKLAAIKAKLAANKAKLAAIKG
Nature of the assay: two-hybrid library CCmax. The settings on record: mean of both orientations.

The target in another assay is T20, APC8910-AA.
T20 chain: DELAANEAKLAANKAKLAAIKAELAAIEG
The assay can be described thus: two-hybrid library CCmax. Particulars: mean of both orientations.

In another assay the target is T21, APC3645-AA.
T21 chain: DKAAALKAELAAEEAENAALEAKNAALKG
Nature of the assay: two-hybrid library CCmax. Particulars: mean of both orientations.

Another assay deals with T22, APC4011-AA.
T22 chain: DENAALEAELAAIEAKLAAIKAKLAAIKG
The assay can be described thus: two-hybrid library CCmax. The settings on record: mean of both orientations.

The next assay has as its target T23, APC5383-AA.
T23 chain: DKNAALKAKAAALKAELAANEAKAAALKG
The assay can be described thus: two-hybrid library CCmax. The settings on record: mean of both orientations.

A further assay concerns the target T24, APC9319-AA.
T24 chain: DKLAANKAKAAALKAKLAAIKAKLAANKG
The assay can be described thus: two-hybrid library CCmax. Particulars: mean of both orientations.

The next assay addresses T25, APC2237-AA.
T25 chain: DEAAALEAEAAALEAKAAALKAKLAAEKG
Nature of the assay: two-hybrid library CCmax.

A further assay has as its target T26, APC232-AA.
T26 chain: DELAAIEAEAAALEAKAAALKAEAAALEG
Nature of the assay: two-hybrid library CCmax. Particulars: mean of both orientations.

The target in a further assay is T27, APC2405-AA.
T27 chain: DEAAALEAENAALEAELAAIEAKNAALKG
Nature of the assay: two-hybrid library CCmax. The settings on record: mean of both orientations.

The target in another assay is T28, APC4436-AA.
T28 chain: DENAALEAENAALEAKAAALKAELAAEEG
Nature of the assay: two-hybrid library CCmax. Particulars: mean of both orientations.

B1: O5 (peptide)
chain: DENAALEAEIAALEYKNAALKAEIAALEG
For B1, the interaction score is -2.16 with O7; -2.25 with O9; -2.4 with O8; 1.32 in the assay with O6; -2.36 with O5.

B2: 4H2915-bN (peptide)
chain: DKIQQLKQKIQELKQKIQELEWENQELEQ
In the case of B2, the interaction score is -0.904 with 4H348-bN; -1.44 with 4H492-bN; -1.62 with 4H3277-bN; -0.568 with 4H3057-bN; 0.918 with 4H2915-bN; 1.52 in the assay with 4H40-bN. Further, the interaction score is -1.16 with 4H741-bN, -3.47 with 4H319-bN and -2.75 with 4H477-bN.

B3: APC2237-AA (peptide)
chain: DEAAALEAEAAALEAKAAALKAKLAAEKG
With B3, the interaction score with APC7099-AA is -1.59; with APC6108-AA, -1.71; with APC4264-AA, -1.65; with APC9096-AA, -1.63; in the assay with APC8191-AA it was -1.41; with APC8910-AA, -1.72. Also, the interaction score with APC3645-AA was -1.41; in the assay with APC4011-AA, 1.54; with APC5383-AA, -1.52; in the assay with APC9319-AA, -2.27; in the assay with APC2237-AA, -1.33; in the assay with APC232-AA, -1.19. Moreover, the interaction score in the assay with APC2405-AA is -1.48; in the assay with APC4436-AA, -2.06.

The values are drawn from article PMC10397247.
